Laboratory results: patent US20230265123A1, “PEPTIDES AND FORMULATIONS FOR CANCER TREATMENT” (Peptinovo Biopharma, Inc., priority 2020, published 2023)
Square brackets hold non-standard residues; d marks the D form. Ends that are not written are not given here. Aib = CC(C)(N)C(=O)O

Target: T1, human SR-BI (Homo sapiens, UniProt Q8WTV0)
T1 construct: expressed in transfected cells; host or cells: BHK(SR-BI) cells obtained from the NIH, GeneSwitch System (Invitrogen), induced with 10 nM mifepristone
T1 sequence (Q8WTV0 1-509 isoform Q8WTV0-2): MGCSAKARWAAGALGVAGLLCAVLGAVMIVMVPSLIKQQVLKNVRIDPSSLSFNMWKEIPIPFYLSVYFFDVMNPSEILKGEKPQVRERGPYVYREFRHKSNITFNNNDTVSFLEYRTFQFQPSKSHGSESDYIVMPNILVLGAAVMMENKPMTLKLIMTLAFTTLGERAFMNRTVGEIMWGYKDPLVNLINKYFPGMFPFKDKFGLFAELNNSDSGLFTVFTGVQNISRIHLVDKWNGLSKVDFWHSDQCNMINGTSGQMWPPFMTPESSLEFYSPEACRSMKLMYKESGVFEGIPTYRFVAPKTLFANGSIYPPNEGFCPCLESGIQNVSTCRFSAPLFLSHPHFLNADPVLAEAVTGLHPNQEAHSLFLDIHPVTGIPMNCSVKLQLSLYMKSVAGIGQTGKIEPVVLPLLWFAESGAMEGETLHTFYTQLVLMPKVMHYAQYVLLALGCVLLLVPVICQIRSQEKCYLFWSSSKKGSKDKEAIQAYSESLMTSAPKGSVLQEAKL
Test: DiI uptake from DiI-labeled PALM by BHK(SR-BI) cells, uninduced or mifepristone-induced (SR-BI selectivity)
Assay type: cell-based
Conditions: for Induced Uptake: BHK(SR-BI) cells induced with 10 nM mifepristone; for Induced Uptake / Basal Uptake: DiI-labeled PALM 32 μg peptide/ml or DiI-labeled HDL 19 μg protein/ml, 4 hours, ± SEM (n = 4); for SR-BI Dependent Uptake: Increase over basal uptake; for Basal Uptake: uninduced BHK(SR-BI) cells
Procedure: The procedure essentially followed that described in Example 5. A 40 μl aliquot of 10 mM or peptide was combined with 56 μl of 20 mM POPC, 24 μl 20 mM SM(egg) and 16 μl 2.5 mM DiI in a small glass vial. The peptide and lipid stock solutions were prepared in 80% TBA/20% water. The DiI stock was prepared in 92% TBA/8% water. The solution was lyophilized, and the resultant cake was rehydrated by addition of 0.2 ml of Dulbeco's phosphate buffered saline. The solution was briefly swirled, water bath sonicated (for approx. 15 sec.) and placed in a 50° C. heating block for 20 minutes.
SR-BI interaction studies are done with BHK(SR-BI) cells obtained from the NIH. The cells were stably transfected with an inducible human SR-BI gene by means of the GeneSwitch™ System (Invitrogen). The cells were plated (96-well plate) (8000 cells/well) in growth medium (Dulbeco's modified Eagle medium containing 10% fetal bovine serum) containing 200 ug/ml each of zeocin and hygromycin. After 24 hours incubation, the growth medium was removed and replaced with 0.2% bovine serum albumin in Dulbeco's modified Eagle medium. The medium of cells to be induced for SR-BI expression also contained 10 nM mifepristone, added from a DMSO stock solution. DMSO alone was added to the medium of uninduced cells. The induction medium was removed after 24 hours incubation and replaced with medium containing DiI-labeled PALM (32 μg peptide/ml) or DiI-labeled HDL (19 μg protein/ml) (Kalen Biomedical, Montgomery Village, Md.). The test media were prepared by diluting an aliquot of Di-I-labeled PALM (Example 6) or the DiI-labeled HDL in 0.2% bovine serum albumin in Dulbeco's modified Eagle medium. The solutions were passed through 0.2 μm pore size, polyethersulfone, sterilization filters before use. The cells were incubated in test media for 4 hours. Next, the cells were washed 3 times with 0.1% albumin in Dulbeco's phosphate buffered saline (with calcium and magnesium). The last wash was replaced with 200 ul/well of t-butanol/water (95%/5%). The covered plate was left to stand at room temperature for 30 min with occasional shaking. The fluorescence in each well was detected at 520 nm excitation and 580 nm emission with a 550 nm cutoff filter on a […] Gemini fluorescence plate reader, the results are shown in Table 6 and FIG. 7.

SR-BI Dependent Uptake [%] | Substance | Induced Uptake | Basal Uptake
35 | DVFQKLVELFNQLLEKWKQV [SEQ ID NO: 2, amphiphilic peptide used to form PALM] | 12 ± 2 (DiI in cells)/(Total DiI added) × 10^−3 | 9 ± 2 (DiI in cells)/(Total DiI added) × 10^−3
14 | DVFQKL{Aib}ELFKELLEKWKQV (DVFQKL[Aib]ELFKELLEKWKQV) [SEQ ID NO: 8, amphiphilic peptide used to form PALM] | 20 ± 9 (DiI in cells)/(Total DiI added) × 10^−3 | 17 ± 8 (DiI in cells)/(Total DiI added) × 10^−3
53 | DVFQKL{Aib}ELFNQLLEKWKQV (DVFQKL[Aib]ELFNQLLEKWKQV) [SEQ ID NO: 1, amphiphilic alpha-helical peptide used to form PALM] | 10 ± 1 (DiI in cells)/(Total DiI added) × 10^−3 | 6 ± 1 (DiI in cells)/(Total DiI added) × 10^−3
82 | DVFQKL{Aib}ELFNQL{Aib}EKFKQV (DVFQKL[Aib]ELFNQL[Aib]EKFKQV) [SEQ ID NO: 6, amphiphilic peptide used to form PALM] | 27 ± 3 (DiI in cells)/(Total DiI added) × 10^−3 | 15 ± 1 (DiI in cells)/(Total DiI added) × 10^−3
104 | DVFQKL{Aib}ELFNQL{Aib}EKWKQV (DVFQKL[Aib]ELFNQL[Aib]EKWKQV) [SEQ ID NO: 5, amphiphilic peptide used to form PALM] | 16 ± 2 (DiI in cells)/(Total DiI added) × 10^−3 | 8 ± 1 (DiI in cells)/(Total DiI added) × 10^−3
78 | DVFQKL{Aib}ELFQNL{Aib}EKWKQV (DVFQKL[Aib]ELFQNL[Aib]EKWKQV) [SEQ ID NO: 10, amphiphilic peptide used to form PALM] | 16 ± 2 (DiI in cells)/(Total DiI added) × 10^−3 | 9 ± 1 (DiI in cells)/(Total DiI added) × 10^−3
72 | DVFQKL{Aib}ELFQQL{Aib}EKWKQV (DVFQKL[Aib]ELFQQL[Aib]EKWKQV) [SEQ ID NO: 9, amphiphilic peptide used to form PALM] | 11 ± 2 (DiI in cells)/(Total DiI added) × 10^−3 | 6 ± 1 (DiI in cells)/(Total DiI added) × 10^−3
66 | DV{Aib}QKFLELFNQLLEKWKQV (DV[Aib]QKFLELFNQLLEKWKQV) [SEQ ID NO: 4, amphiphilic peptide used to form PALM] | 10 ± 1 (DiI in cells)/(Total DiI added) × 10^−3 | 6 ± 1 (DiI in cells)/(Total DiI added) × 10^−3
79 | DV{Aib}QKLFELFNQLLEKWKQV (DV[Aib]QKLFELFNQLLEKWKQV) [SEQ ID NO: 3, amphiphilic peptide used to form PALM] | 11 ± 2 (DiI in cells)/(Total DiI added) × 10^−3 | 6 ± 1 (DiI in cells)/(Total DiI added) × 10^−3
137 | D{Aib}FQKL{Aib}ELFNQL{Aib}EKWKQV (D[Aib]FQKL[Aib]ELFNQL[Aib]EKWKQV) [SEQ ID NO: 7, amphiphilic peptide used to form PALM] | 18 ± 2 (DiI in cells)/(Total DiI added) × 10^−3 | 8 ± 1 (DiI in cells)/(Total DiI added) × 10^−3

Substance | SR-BI Dependent Uptake [%] | Induced Uptake | Basal Uptake
PVLDLFRELLNELLEALKQKLK [SEQ ID NO: 11, reference compound] | 55 | 5 ± 1 (DiI in cells)/(Total DiI added) × 10^−3 | 3 ± 1 (DiI in cells)/(Total DiI added) × 10^−3
